This data set can be described thus: label from the status in PepcDB records.

Consider “MVRGDDQLNGLQGGKRALDILCVATERTVSAFAYEEIGETSTEGDKRRERLRRLRRLINYSLSTTMNSSLSKRLKIDECKNQDPEQNPNRVASSPSSCHLESKRPQKVVSNKPVRNRKPVIVTDEDRTPTEWLIDVMREVNGMDAKLIFVKVLPNSDVDELQTRLMMPWKQILDMDFLNEEELEKIDRHHKKISASDKGADVIVVNSKGLQRKLKLKRWDMTSTSNYVLGLGWNKVVTDNILQRGTRLRIWSFHSPDMLFFAFVLSDPDPAPTECLNLLAKLCEETTCLEALQEANRMSSLVSDTELDLELRL”, for which the protein production result is recorded as “failed”.
For the sequence “MVRRRQTSETGLLRQLPLALLIWGLFSLMMWVPAVYALTLNDHPTSRSFFYAGILGLVVVTTISLARAGRPSRHGLLGQLAVLLSTFAVLPLFLAVPFHDALKTTSFLNAYFEMVSAITTTGAEMFPDPGRLSAPLHLWRAQVGWLGGLVMWIAASAILAPLSLGGFEVTAQGQPGRVLVGQGESVDPRGRLLRVAATLAPVYAGLTLVVAILLLAAGDSGLVAICHAMSVMATSGISPVGGLSGGASGLTGEAILFLFMFFALSRLTFSSDTAMRGHARLDQDPEFRIGLLILLGVPALLFLRHWSGAIDIASGENLTLALRALWGSLFTVMSFLSTTGFESTDWAEARQWSGLGTPGMILLGLSVIGGGVATTAGGVKLLRVYALYLNGTRELQRLVHPSSVSSATGRNRRIQRGGAFIAWVFFMLFAISLAAIALALAAAGSDFETAMVLSIATLSTTGPLIEIGAQEPIRLIEMPAAAKLILSGAMIIGRLETLAFIALITPALWRN”, the protein production entry is on record as “failed”.
For “MVRVRFAPSPTGFLHVGGARTALFNFLFARKEKGKFILRIEDTDLERSEREYEEKLMESLRWLGLLWDEGPDVGGDHGPYRQSERVEIYREHAERLVKEGKAYYVYAYPEEIEEMREKLLSEGKAPHYSQEMFEKFDTPERRREYEEKGLRPAVFFKMPRKDYVLNDVVKGEVVFKTGAIGDFVIMRSNGLPTYNFACVVDDMLMEITHVIRGDDHLSNTLRQLALYEAFEKAPPVFAHVSTILGPDGKKLSKRHGATSVEAFRDMGYLPEALVNYLALLGWSHPEGKELLTLEELISSFSLDRLSPNPAIFDPQKLKWMNGYYLRNMPIEKLAELAKPFFEKAGIKIIDEEYFKKVLEITKERVEVLSEFPEESRFFFEDPAPVEIPEEMKEVFSQLKEELQNVRWTMEEITPVFKKVLKQHGVKPKEFYMTLRRVLTGREEGPELVNIIPLLGKEIFLRRIERSLGG”, the protein production entry is “not failed”.
For “MVSKECCRNEIRAAIRQLSDRCLYSAAKWAGEQLVGIEQDPSNFTPANTRFQRGSSSIRRRFSTNESISTPLPSVGFSQAATPLPEEDEAIDGDIYLLAKSYFDCREYRRASHMLRDQVSKKSLFLRYYALYLAGEKRKEEEMIELEGPLGKSDAINRELVSLERDLSALRRTGAIDSFGLYLYGVVLKEKGNESLARASLVESVNSYPWNWSAWSELQSLCTSIEILNSLNLNNHWMKEFFLGNAYQELRMHTESLAKYEYLQGIFSFSNYIQAQTAKAQYSLREFDQVEIMFEELLRNDPYRVEDMDLYSNVLYAKEACAALSYLAHKVFLTDKYRPESCCIIGNYYSLKGQHEKAVMYFRRALKLNKKYLSAWTLMGHEYVEMKNTPAAIDAYRRAVDINPTDYRAWYGLGQAYEMMGMPFYALHYFRKSIFFLPNDSRLWIAMAKCYQTEQLYMLEEAIKCYKRAVNCTDTEGIALNQLAKLHQKLGRNEEAAYYFEKDLERMDAEGLEGPNMFEALVFLATHFKNHKKFEEAEVYCTRLLDYSGPEKEKAKSLLRGIRMAQTGFPSMDLEHFPI” the value was “failed”; for “MVSLPRLASLLTTRLATLKPALKPATHLASLGAQVIAELVPGIRMSPNRRRILPANMGAGFIGAEIAMWWALSPSLLPKPWWVTAANLAVLQAVGHAAATGIHSILPRTNRRVSRKIYNATHIATGAITLTTTVVGLIRHRTQIRLIGQKNFGPKETIAGISVGTLGYGALLITGELTQHSINEVKLLIERFLPPWISFIAAVSVITLTTLTLADRVLLRRILHNSAIQAAHLNRMVFPGTEQPWEPERSGSPWSYEKWGAVGSQGRAVLSGGPRKDDIITVTRLSDTETHEPIRIFIGMVPGRSLSDQVDLVIHEMRRTGALRRDHIVINNSTGTGWITDWSAHTFEFLTGGNCVTISMQYSYLPSALSWYKDNDGPINAARMLIDAVLHELDQLPTGSRPKLFLAGESLGAYGLAEVWGDVEKLLGTADGVLLSGAPRFSDAMNALRTRRDASSSERLPVIDSGRHIRFAGEPEHLDMPATWQFPRMIVAQHASDPIVWWNAELFIRRPEWLKTPKQDHQDVFPRLRWMPFVTGWQVALDLFTSTSVPGGHGHNYHEEFIDYWAALLDREVTPELRHSIAYWIRANHIKR”, “failed”; for “MVSRRGVAGLDFDNRVRSLINTFGLVSVHVQCYFIISDLCLRDSSHQGIFLVSVTRSGCLMVHDFESLYCQSKLGPGSAEDESKHVVHFSYPPGREFDVARWNPSNQNEVACTSRKHDQVLIFDISYMSPKPTEVLQTRQKLSIIGRKISRGLSDVAITSDEDSRIFSPDTLGMVHVWDRRAGVSPCIELSTDRYDSIKSIQIYVDNQTIFGAGKEGIIHIWDLRGGRNSSAFQSRKDVSLTRGELELAMAMSQLPLASLHLAPKLQKIASLKAQSEIVPKEIHSIDVNPSSPHQLAFHLDDGWSGVLDIYKSEVTHVHCPPPAWLDGSNSSADLILRKPSWLPTSSIYVVGSMSEKGIHVLDFHPSSRSPCHVDYDEDTQRNEKRDKCNHRNKFVSLSETVTGCAAHPLNGMIVAGTQNSSLLLIAQMHCSSSSETAEGEL”, “failed”.
As for “MVSRSPFESFQWKSDIFNCESTDIDNFYLLLEQEMTRLGMVEKNLGEVGKYKVSLYQSPAAKSGLPSLLISAGFHGEESAGPWGLLHFLSEASADLFERVNLSLLPLVNPTGFSRGHRFNKYGENPNRGFVFENGKPKANEHTSVEGKLLLDHAQLLIAACRDGILTCHEDVLSREAYVYSFEPSQVPGRFSLDLRDTLGGYFPIAVDGEIDACPVKDGLIFNHFDTSFEACLVRSGARVGACTETPALQNFDQRVLANSAAMTHFLALCAPLCD”, the protein production result is on record as “not failed”.
The result for “MVSSLLMSFAPATVRVYATSTKGGSGGPKEEKNPIDFVLGFMTKQDQFYETNPLLKKVDEKEGTTTGGRGTVRGGKNSAPTPVPKKSEGGFGGLGSLFKK” reads “failed”; that for “MVSSVLPNPTSAECWAALLHDPMTLDMDAVLSDFVRSTGAEPGLARDLLEGKNWDLTAALSDYEQLRQVHTANLPHVFNEGRGPKQPEREPQPGHKVERPCLQRQDDIAQEKRLSRGISHASSAIVSLARSHVASECNNEQFPLEMPIYTFQLPDLSVYSEDFRSFIERDLIEQATMVALEQAGRLNWWSTVCTSCKRLLPLATTGDGNCLLHAASLGMWGFHDRDLVLRKALYTMMRTGAEREALKRRWRWQQTQQNKEEEWEREWTELLKLASSEPRTHFSKNGGTGGGVDNSEDPVYESLEEFHVFVLAHILRRPIVVVADTMLRDSGGEAFAPIPFGGIYLPLEVPPNRCHCSPLVLAYDQAHFSALVSMEQRDQQREQAVIPLTDSEHKLLPLHFAVDPGKDWEWGKDDNDNARLAHLILSLEAKLNLLHSYMNVTWIRIPSETRAPLAQPESPTASAGEDVQSLADSLDSDRDSVCSNSNSNNGKNGKDKEKEKQRKEKDKTRADSVANKLGSFSKTLGIKLKKNMGGLGGLVHGKMGRANSANGKNGDSAERGKEKKAKSRKGSKEESGASASTSPSEKTTPSPTDKAAGASPAEKGGGPRGDAWKYSTDVKLSLNILRAAMQGERKFIFAGLLLTSHRHQFHEEMIGYYLTSAQERFSAEQEQRRRDAATAAAAAAAAAAATAKRPPRRPETEGVPVPERASPGPPTQLVLKLKERPSPGPAAGRAARAAAGGTASPGGGARRASASGPVPGRSPPAPARQSVIHVQASGARDEACAPAVGALRPCATYPQQNRSLSSQSYSPARAAALRTVNTVESLARAVPGALPGAAGTAGAAEHKSQTYTNGFGALRDGLEFADADAPTARSNGECGRGGPGPVQRRCQRENCAFYGRAETEHYCSYCYREELRRRREARGARP”, “failed”; that for “MVTAAQPRSPSPSPSSTAAAGQVTRRVPAVRHLGPNWYACVMGTAIVGTAGAALPGHVAGLRAACTAVWALSLVLLVVLLTARSLHWLHHRDQARAHLLDPSAAPFYGCLSMALLAVGGGALALGRDWIGTPAAVALDTVLFTAGTVIGLAAAVAVPYLMAVRHRVEPGQASPVWLLPLVAPMVSAAVGPLLVPHLPAGQPRETLLLACVAMFGMSLFATLVTLPVVFGRLLTGGPLPLALTPSLFLVLGPLGQSTTAVGKFADVAPGVVPGPYAEGFAVFAVLYGVPVTGFALMWLALAAAHVVRARRAGMRFSMTWWSFTFPVGTCVTGAEALARETGLVVYDGLTVALYALLVAAWAVAAVHTARGLFSGVLLAGPRPAPGAPRPATARTT”, “failed”.

These data come from a protein production outcome set (Wang et al. 2014).
